B1: proteinase K: protease reacted with TMR-α-casein substrate (protein, UniProt P06873 106-384, looked up)
Proteinase K: AAQTNAPWGLARISSTSPGTSTYYYDESAGQGSCVYVIDTGIEASHPEFEGRAQMVKTYYYSSRDGNGHGTHCAGTVGSRTYGVAKKTQLFGVKVLDDNGSGQYSTIIAGMDFVASDKNNRNCPKGVVASLSLGGGYSSSVNSAAARLQSSGVMVAVAAGNNNADARNYSPASEPSVCTVGASDRYDRRSSFSNYGSVLDIFGPGTSILSTWIGGSTRSISGTSMATPHVAGLAAYLMTLGKTTAASACRYIADTANKGDLSNIPFGTVNLLAYNNYQA
B2: papain: protease reacted with TMR-α-casein substrate (protein, UniProt P00784 134-345, looked up)
Papain: IPEYVDWRQKGAVTPVKNQGSCGSCWAFSAVVTIEGIIKIRTGNLNEYSEQELLDCDRRSYGCNGGYPWSALQLVAQYGIHYRNTYPYEGVQRYCRSREKGPYAAKTDGVRQVQPYNEGALLYSIANQPVSVVLEAAGKDFQLYRGGIFVGPCGNKVDHAVAAVGYGPNYILIKNSWGTGWGENGYIRIKRGTGNSYGVCGLYTSSFYPVKN

How the values were obtained:
[1] = system: TMR-α-casein; assay: On-chip protease assay by fluorescence polarization of TMR-α-casein substrate, lab-on-a-chip with optical chopper; assay type: biochemical; conditions: 1 μM TMR-α-casein final in channel; reaction time 5.1 seconds; FIGS. 10A-10D
Protocol: Next, the protease assays were carried out using an apparatus for measuring fluorescence polarization including the optical chopper of FIG. 2 on a lab-on-a-chip of glass composed of a channel 1 C1, in which substrates or enzymes flowed, and a channel 2 C2, in which the reaction occurred, the channels having a depth of 12 μm and a width of 79 μm as depicted in FIG. 8.
For on-chip protease assays, the substrates and the enzymes should mix completely prior to the enzyme reactions. […] […] Therefore, the reaction time was confirmed to be 5.1 seconds after mixing of the substrate with the enzymes.
Subsequently, to carry out the protease assays in the lab-on-a-chip,2 μM of TMR-α-casein (the final concentration in the channel was 1 μM) was placed in a substrate reservoir and the respective proteases were placed in an enzyme reservoir at increasing concentrations in the same manner as the comparative example. Then, the two substances were allowed to flow into a channel 2 C2, a main channel, to cause a reaction. Fluorescence polarization FP was then measured at the detection point, positioned 32 mm away from the junction, from which the substrates and the enzymes flowed in.
Again, it was noted that fluorescence polarization values plateaued when the concentration of the enzymes reached at the point generating a specific rate or more.

[2] = system: TMR-α-casein; assay: Protease assay by fluorescence polarization of TMR-α-casein substrate, commercial fluorescence spectrometer; assay type: biochemical; conditions: time course, varying enzyme concentrations (unit/mL); FIGS. 9A-9D
Protocol: Changes of fluorescence polarization FP were measured using the method and apparatus for measuring fluorescence polarization of the present invention, employing TMR-α-casein as a substrate, composed of TMR as a fluorescent probe and α-casein, a universal protein substrate reacted with various proteases.
First, TMR-α-casein, a fluorescently labeled substrate for proteases, was prepared by applying one of the well-known methods [Analytical Biochemistry (,1996) 243, 1-7] as follows.
10 mg/mL of α-casein (sigma) and 5 mg/mL of 5-carboxytetramethylrhodamine succinimidyl ester were mixed in 0.1 M sodium bicarbonate buffer solution (pH 9.0) for reaction at room temperature for two and a half hours. The resulting TMR-α-casein was purified by passing the reaction mixture over a HiTrap desalting column (Sephadex G-25 Amersham Bioscience), and used after quantitation of the amounts of protein and fluorescence.
Proteinase K, trypsin, papain and elastase were used as proteases to react at increasing concentrations. First, as a comparative example, the process that the TMR-α-casein substrate was degraded by the proteases was analyzed using a commercial fluorescence spectrometer (Perkin Elmer). […]

Molecule | change of fluorescence polarization values of TMR-α-casein with enzyme concentration [1] | change of fluorescence polarization values of TMR-α-casein as the reaction proceeded [2]
B1 | decreased with increasing concentrations | decreased
B2 | decreased with increasing concentrations | decreased
